Target: carcinoembryonic antigen (CEA) (UniProt P06731 35-685)
Assay: agarose gel (displacement of Walker strand from aptamer-Walker duplex); 10 ng/mL CEA; DNA 10 uM; aptamer pre-hybridised to Walker; aptamer-Walker duplex formed in 1x PBS (0.01 M, pH 7.4) at 37 C for 1 h; sensor with 10 mM Mn2+; gel binding buffer not given in the available material
Settings: protein displaces Walker

carcinoembryonic antigen (CEA), sequence (P06731 35-685): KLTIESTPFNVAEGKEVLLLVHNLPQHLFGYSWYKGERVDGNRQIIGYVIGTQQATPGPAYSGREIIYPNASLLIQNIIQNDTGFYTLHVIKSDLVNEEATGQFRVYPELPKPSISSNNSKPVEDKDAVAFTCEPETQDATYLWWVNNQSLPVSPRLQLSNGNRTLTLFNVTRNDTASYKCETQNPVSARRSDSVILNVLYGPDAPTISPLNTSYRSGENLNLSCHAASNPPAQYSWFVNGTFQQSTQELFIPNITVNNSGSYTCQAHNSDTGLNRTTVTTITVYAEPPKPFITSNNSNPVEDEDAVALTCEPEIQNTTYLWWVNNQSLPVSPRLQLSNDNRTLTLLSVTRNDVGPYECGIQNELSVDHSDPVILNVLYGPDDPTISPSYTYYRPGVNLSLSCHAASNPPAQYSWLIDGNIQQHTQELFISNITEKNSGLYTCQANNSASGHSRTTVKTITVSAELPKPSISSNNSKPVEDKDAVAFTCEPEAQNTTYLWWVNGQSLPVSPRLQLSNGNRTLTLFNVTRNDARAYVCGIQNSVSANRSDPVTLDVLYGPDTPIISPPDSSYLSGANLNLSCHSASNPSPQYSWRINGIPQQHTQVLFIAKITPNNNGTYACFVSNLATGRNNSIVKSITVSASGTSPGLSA

Q: Does ATACCAGCTTATTCAATT (ssDNA) [CEA aptamer] bind?
A: Result: binds

Source: publication PMC11102226, “Three-dimensional DNA nanomachine biosensor coupled with CRISPR Cas12a cascade amplification for ultrasensitive detection of carcinoembryonic antigen”
